The EC50 (read off the curve) is the concentration that produces a half-maximal response. A higher EC50 (read off the curve) goes with weaker potency.

For assay [1], the target named is OVA peptide on H-2Kb (mouse). In words: SPR; the murine single-chain CD8α/β domain of the complex binds the same peptide-MHC, so the value is not that of the TCR alone; single-chain; fusion: hIL-15, in complex with scCD8/hIL-15RαSu/birA (OT1scTCR/scCD8 heterodimer).
Assay [2] addresses OVA peptide on H-2Kb (mouse). Put plainly: value cited from Alam et al. for the monovalent OT1 TCRα/β heterodimer on immobilised OVA peptide/H-2Kb; not measured in this filing; soluble, other.
In assay [3] the target is OVA peptide on H-2Kb (mouse). In words: SPR, BIAcore 2000; biotinylated peptide/H2-Kb/birA on a streptavidin chip; apparent affinity of the bivalent dimer; single-chain; fusion: hIL-15 with hIL-15RαSu/birA (OT1scTCR dimer). For orientation: In SPR one partner is held on a chip, and binding of the other changes the refractive index at the surface.
Assay [4] concerns the target OVA (aa257-264) peptide/H-2Kb complex (mouse) (UniProt P01901). Put plainly: SPR (BIAcore 2000), biotinylated pMHCI on streptavidin chip.
Assay [5] concerns the target IL-15 receptor (IL-15RβγC) on 32Dβ cells (human; mouse) (UniProt P14784). In words: cell-based or functional assay.
The target of assay [6] is anti-human IL-15 antibody. Put plainly: ELISA, anti-human IL-15 antibody as capture and as detection. For orientation: An ELISA detects its analyte on a solid surface through an enzyme-linked reagent.
The target in assay [7] is anti-human IL-15 antibody. In words: ELISA, anti-human IL-15 antibody as capture and as detection; reference of the table.

Chain of IL-15 receptor (IL-15RβγC) on 32Dβ cells (human; mouse) (P14784 27-551, chain 1 of 2): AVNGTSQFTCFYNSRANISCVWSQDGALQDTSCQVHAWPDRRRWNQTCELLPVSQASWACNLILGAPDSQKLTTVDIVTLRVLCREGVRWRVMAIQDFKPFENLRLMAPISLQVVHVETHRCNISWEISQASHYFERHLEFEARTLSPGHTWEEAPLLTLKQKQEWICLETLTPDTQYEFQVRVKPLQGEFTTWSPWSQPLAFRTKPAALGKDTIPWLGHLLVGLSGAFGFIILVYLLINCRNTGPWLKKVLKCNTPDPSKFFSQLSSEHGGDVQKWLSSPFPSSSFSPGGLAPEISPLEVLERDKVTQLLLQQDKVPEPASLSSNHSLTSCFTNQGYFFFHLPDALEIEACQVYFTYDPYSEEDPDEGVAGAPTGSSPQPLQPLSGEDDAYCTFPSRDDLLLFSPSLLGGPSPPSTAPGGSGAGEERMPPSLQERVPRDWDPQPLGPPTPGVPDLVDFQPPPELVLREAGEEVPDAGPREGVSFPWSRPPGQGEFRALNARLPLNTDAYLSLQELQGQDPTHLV
Chain of IL-15 receptor (IL-15RβγC) on 32Dβ cells (human; mouse) (P34902 23-369, chain 2 of 2, further chain): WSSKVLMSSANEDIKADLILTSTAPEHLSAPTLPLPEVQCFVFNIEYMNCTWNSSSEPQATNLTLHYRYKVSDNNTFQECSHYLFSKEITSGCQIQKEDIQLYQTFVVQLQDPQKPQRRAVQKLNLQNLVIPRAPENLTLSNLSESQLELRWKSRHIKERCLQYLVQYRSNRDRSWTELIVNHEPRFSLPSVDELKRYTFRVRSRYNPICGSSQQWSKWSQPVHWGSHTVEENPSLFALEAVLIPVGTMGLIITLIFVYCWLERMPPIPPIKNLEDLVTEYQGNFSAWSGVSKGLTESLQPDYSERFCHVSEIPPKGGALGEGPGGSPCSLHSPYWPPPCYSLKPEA
Chain of OVA (aa257-264) peptide/H-2Kb complex (mouse) (P01901 22-305, one chain of several): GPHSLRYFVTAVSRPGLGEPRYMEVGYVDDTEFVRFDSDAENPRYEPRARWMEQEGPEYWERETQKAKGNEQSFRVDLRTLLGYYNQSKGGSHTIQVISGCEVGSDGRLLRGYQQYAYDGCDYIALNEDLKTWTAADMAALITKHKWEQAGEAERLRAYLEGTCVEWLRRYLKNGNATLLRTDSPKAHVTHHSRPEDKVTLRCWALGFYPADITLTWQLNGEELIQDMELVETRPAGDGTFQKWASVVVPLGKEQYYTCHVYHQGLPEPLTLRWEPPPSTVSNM

As for OT1scTCR, the Kd in assay [1] was determined as 2600 nM; in assay [2] it was 6000 nM; in assay [3], 30000 nM.
On to “OT1scTCR dimer: OT1scTCR/hIL-15:OT1scTCR/hIL-15RαSu/birA complex (from UniProt P40933 49-162; Q13261 31-95)”, for which, in assay [4], the Kd is 30000 nM.
“OT1scTCR/scCD8 heterodimer: OT1scTCR/hIL-15:scCD8/hIL-15RαSu/birA complex (from UniProt P40933 49-162; P01731 28-196; P10300 22-175; Q13261 31-95)”: in assay [4], the Kd stood at 2600 nM. In the assay with anti-murine CD8α mAb, this substance showed a 50% effective concentration (EC50 (read off the curve)) of 0.5 nM.
“c264scTCR dimer: c264scTCR/hIL-15:c264scTCR/hIL-15RαSu/birA complex (from UniProt P40933 49-162; Q13261 31-95)” gave a 32Dβ cell proliferation, half-maximal stimulation (EC50) in assay [5] of 0.3 nM.
Same read-out and setting: with “c264scTCR/hIL-15 fusion protein (from UniProt P40933 49-162)” the figure was 0.3 nM.
Substance c264scTCR/huIL15N72D fusion protein had an EC50 (read off the curve) in assay [6] of 0.2 nM. Besides, the Relative activity (%) in assay [7] was determined as 100%.
